One series has as its target fibronectin (UniProt P02751).
Another series deals with fibrillin-1 (UniProt P35555).
Series [1] addresses human insoluble skin elastin (UniProt P15502).
For series [2], the target named is human insoluble aortic elastin (UniProt P15502).

“Also recorded” adds a separate entry of the source.

Chain of fibrillin-1 (P35555 whole entry, looked up): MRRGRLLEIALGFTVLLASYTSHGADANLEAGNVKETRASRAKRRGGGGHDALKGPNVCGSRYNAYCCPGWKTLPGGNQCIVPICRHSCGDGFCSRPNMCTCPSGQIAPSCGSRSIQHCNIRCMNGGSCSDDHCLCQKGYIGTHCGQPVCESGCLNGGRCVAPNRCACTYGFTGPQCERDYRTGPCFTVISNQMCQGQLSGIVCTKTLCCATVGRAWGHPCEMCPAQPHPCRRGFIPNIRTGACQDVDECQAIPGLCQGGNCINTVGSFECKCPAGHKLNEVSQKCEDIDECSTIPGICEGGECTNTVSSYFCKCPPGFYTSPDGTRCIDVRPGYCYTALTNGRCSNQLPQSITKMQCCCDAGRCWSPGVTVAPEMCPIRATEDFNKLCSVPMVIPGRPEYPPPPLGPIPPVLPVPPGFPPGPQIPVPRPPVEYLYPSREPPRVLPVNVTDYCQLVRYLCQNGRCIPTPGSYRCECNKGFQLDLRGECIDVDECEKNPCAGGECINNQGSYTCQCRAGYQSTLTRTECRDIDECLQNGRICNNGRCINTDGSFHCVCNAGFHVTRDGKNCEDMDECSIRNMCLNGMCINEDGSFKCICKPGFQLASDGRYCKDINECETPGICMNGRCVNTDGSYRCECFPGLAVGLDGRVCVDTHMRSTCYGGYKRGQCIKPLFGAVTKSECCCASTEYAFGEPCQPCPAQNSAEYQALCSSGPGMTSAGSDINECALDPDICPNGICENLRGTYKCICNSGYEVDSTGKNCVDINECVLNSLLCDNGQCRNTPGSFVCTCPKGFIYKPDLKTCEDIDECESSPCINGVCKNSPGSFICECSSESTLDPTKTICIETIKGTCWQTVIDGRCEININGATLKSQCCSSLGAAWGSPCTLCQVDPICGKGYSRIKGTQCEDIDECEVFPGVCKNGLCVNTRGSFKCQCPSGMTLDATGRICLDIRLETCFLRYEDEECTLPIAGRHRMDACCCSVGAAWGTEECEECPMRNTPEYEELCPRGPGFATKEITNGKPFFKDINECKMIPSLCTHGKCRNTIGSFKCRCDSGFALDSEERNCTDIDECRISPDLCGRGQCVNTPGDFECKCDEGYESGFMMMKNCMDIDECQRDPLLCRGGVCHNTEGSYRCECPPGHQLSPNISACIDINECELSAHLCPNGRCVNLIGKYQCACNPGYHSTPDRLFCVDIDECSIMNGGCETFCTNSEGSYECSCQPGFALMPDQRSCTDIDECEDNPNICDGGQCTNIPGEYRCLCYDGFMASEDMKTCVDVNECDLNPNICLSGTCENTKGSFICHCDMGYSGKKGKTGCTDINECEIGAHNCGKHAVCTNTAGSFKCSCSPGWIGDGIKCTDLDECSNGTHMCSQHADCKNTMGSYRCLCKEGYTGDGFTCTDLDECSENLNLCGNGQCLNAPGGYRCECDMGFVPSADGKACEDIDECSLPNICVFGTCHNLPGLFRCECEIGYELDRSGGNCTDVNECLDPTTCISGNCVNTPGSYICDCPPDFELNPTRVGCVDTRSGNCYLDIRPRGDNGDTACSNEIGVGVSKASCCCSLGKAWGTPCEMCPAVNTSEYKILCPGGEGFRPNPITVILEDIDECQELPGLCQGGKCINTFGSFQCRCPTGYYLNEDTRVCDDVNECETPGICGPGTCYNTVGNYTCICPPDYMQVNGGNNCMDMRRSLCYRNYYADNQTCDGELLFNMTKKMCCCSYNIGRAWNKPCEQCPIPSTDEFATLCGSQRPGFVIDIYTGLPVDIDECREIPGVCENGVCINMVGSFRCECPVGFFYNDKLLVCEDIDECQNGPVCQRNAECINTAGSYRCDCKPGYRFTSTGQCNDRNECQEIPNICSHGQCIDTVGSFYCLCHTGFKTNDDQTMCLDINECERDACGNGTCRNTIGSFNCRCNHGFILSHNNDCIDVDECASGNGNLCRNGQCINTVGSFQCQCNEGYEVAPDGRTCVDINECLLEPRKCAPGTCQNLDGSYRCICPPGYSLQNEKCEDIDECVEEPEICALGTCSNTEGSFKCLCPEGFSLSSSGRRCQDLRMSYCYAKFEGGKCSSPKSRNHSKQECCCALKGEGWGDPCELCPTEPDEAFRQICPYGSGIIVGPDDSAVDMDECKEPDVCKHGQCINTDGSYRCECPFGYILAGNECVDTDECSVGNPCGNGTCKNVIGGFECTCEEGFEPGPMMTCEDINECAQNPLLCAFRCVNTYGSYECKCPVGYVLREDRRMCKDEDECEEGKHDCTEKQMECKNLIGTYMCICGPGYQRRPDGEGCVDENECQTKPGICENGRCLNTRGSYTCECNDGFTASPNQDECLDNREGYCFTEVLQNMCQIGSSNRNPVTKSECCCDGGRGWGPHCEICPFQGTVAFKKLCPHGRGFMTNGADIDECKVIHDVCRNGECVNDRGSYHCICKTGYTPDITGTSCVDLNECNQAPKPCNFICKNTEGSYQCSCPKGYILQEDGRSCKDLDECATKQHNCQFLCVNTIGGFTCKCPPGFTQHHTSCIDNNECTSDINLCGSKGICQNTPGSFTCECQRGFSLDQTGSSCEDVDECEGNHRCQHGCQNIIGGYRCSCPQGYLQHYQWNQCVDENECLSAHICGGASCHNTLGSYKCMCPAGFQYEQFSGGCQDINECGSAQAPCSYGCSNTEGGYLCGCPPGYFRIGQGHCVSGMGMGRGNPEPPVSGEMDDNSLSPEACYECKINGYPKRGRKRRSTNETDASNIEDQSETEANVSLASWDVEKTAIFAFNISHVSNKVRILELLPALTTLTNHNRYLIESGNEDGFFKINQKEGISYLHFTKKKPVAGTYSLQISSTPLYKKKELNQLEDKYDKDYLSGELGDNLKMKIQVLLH
Chain of human insoluble aortic elastin (P15502 27-786): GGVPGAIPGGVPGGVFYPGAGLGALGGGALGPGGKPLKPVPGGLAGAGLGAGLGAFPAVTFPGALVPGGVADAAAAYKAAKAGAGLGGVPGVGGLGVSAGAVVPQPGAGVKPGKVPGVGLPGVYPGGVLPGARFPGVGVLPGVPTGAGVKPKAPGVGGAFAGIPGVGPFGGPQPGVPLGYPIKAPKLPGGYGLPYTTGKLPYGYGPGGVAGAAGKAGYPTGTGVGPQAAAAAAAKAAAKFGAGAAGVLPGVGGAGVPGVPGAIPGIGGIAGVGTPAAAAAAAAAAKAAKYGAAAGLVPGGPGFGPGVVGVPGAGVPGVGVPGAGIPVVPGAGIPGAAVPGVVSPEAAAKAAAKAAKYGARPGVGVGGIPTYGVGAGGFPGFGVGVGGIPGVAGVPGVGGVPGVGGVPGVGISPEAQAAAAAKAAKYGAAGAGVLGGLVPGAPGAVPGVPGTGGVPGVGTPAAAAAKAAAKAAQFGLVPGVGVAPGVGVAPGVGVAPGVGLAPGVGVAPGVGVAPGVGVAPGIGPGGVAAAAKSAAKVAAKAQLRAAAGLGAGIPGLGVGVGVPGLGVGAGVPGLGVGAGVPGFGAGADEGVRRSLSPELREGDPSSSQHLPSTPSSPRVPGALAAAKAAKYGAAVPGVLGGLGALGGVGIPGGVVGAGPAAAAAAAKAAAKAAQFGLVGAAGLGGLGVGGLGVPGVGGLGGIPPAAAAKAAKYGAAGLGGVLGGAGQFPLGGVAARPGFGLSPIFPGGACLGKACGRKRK
Chain of human insoluble skin elastin (P15502 27-786): as above

As for Granzyme A, the “cleavage fragments, fibronectin Western blot of supernatants” value in the series with fibronectin is “supernatants treated with granzyme A for the indicated times were probed for fibronectin and several fragments were observed”. The “cleavage fragments, fibrillin-1 Western blot of supernatant and ECM” value with fibrillin-1 is “showed fibrillin-1 cleavage fragments in the GrA supernatant, GrA ECM”.

Regarding Trypsin, the “cleavage fragments, fibrillin-1 Western blot of supernatant and ECM” value with fibrillin-1 was “showed fibrillin-1 cleavage fragments in the GrA supernatant, GrA ECM, Trypsin supernatant, and Trypsin ECM; also recorded: showed fibrillin-1 cleavage fragments in the GrB supernatant, GrB ECM, Trypsin supernatant and Trypsin ECM”.

Take elastase: the “radioactivity increase over background” value is 14.9 fold for skin elastin in series [1] and 7.7 fold for aortic elastin in series [2].

(Values after patent publication US8715948.)
